Key:
Free BSA (Sigma A6003) [1] = target: Free BSA (Sigma A6003) (UniProt P02769); assay: ELISA, free BSA coated at 500 ng/well in sodium bicarbonate, gamma detection, antibody at 1 µg/ml
Free BSA (Sigma A6003) [2] = target: Free BSA (Sigma A6003) (UniProt P02769); assay: ELISA, free BSA coated at 500 ng/well in sodium bicarbonate, gamma detection, antibody at 10 µg/ml
Free BSA (Sigma A6003) [3] = target: Free BSA (Sigma A6003) (UniProt P02769); assay: ELISA, free BSA coated at 500 ng/well in sodium bicarbonate, gamma detection, antibody at 0.1 µg/ml
Free BSA (Sigma A6003) [4] = target: Free BSA (Sigma A6003) (UniProt P02769); assay: ELISA, free BSA coated at 300 ng/well, anti-IgG (gamma) detection

Sequence of UniProt P02769 (P02769 25-607 limits assumed): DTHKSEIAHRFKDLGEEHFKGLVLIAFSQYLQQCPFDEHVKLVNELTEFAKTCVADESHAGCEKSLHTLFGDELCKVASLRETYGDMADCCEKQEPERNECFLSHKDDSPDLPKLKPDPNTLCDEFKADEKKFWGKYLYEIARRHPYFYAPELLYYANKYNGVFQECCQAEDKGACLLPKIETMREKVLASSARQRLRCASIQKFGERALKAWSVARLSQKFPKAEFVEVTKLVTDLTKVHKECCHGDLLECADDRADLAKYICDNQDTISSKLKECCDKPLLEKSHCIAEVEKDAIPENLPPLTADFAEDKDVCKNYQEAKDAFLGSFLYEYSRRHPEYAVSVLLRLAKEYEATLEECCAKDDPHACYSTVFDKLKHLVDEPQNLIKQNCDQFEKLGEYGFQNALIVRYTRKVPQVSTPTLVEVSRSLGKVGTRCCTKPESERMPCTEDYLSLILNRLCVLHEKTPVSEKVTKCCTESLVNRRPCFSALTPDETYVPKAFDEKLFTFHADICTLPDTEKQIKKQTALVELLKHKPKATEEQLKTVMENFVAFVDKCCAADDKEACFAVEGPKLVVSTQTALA

OD (Free BSA (Sigma A6003) [1]) [OD]	OD (Free BSA (Sigma A6003) [2]) [OD]	OD (Free BSA (Sigma A6003) [3]) [OD]	OD (Free BSA (Sigma A6003) [4]) [OD]	Binder
0.057	0.062	0.056	0.098	6C8 (antibody, V domains shown) VH: QVQLQQSGAELVKPGASVKISCKASGYAFSSYWMNWVKQRPGKGLEWIGQIYPGDGDTNYNGKFKGKATLTADKSSSTAYMQLSSLTSEDSAVYFCTRRCYYGLYFDVWGTGTTVTVSS VL: DIKMTQSPSSRYASLGERVTITCKASQDINRYLSWFQQKPGKSPKTLIYRANRLVDGVPSRFSGSGSGQDYSLTISSLEYEDMGIYYCLQYDEFPYTFGGGTKLEIK
			0.077	7B10 (antibody, IgM, V domains shown) VH: QVQLQQSGAELAKPGASVKLSCKASGYTFTSYWMHWVKQRPGQGLEWIGYINPSSGYTKYNQKFKDKATLTADKSSSTAYMQLSSLTYEDSAVYYCARGGYYGFAYWGQGTLVTVSA VL: QIVLTQSPALMSASPGEKVTMTCSASSSVSYMYWYQQKPRSSPKPWIYLTSNLASGVPARFSGSGSGTSYSLTISSMEAEDAATYYCQQWSSNPLTFGAGTKLELK
			0.105	9H11 (antibody, IgM, V domains shown) VH: QVQLQQSGAELAKPGASVKLSCKASGYTFTSYWMHWVKQRPGQGLEWIGYINPSSGYTKYNQKFKDKATLTADKSSSTAYMQLSSLTYEDSAVYYCARGGYYGFAYWGQGTLVTVSA VL: QIVLTQSPALMSASPGEKVTMTCSASSSVSYMYWYQQKPRSSPKPWIYLTSNLASGVPARFSGSGSGTSYSLTISSMEAEDAATYYCQQWSSNPLTFGAGTKLELK
			0.095	9H10 (antibody, IgM, V domains shown) VH: QVQLKQSGPGLVQPSQSLSITCTVSGFSLTSYGVHWVRQSPGKGLEWLGVIWSGGSTDYNAAFISRLSISKDNSKSQVFFKMNSLQADDTAIYYCARNYGYDYAMDYWGQGTSVTVSS VL: DILLTQSPAILSVSPGERVSFSCRASQSIGTSIHWYQQRTNGSPRLLIKYASESISGIPSRFSGSGSGTDFTLSINSVESEDIADYYCQQSNSWPFTFGSGTKLEIK
0.119	0.15	0.079	1.29	6B5 (antibody, V domains shown) VH: QVQLQQSDAELVKPGASVKISCKVSGYTFTDHTIHWMKQRPEQGLEWIGYNYPRDGSTKYNEKFKGKATLTADKSSSTAYMQLNSLTSEDSAVYFCAKGFITTVVPSAYWGQGTLVTVSA VL: DVQITQSPSYLAASPGETITINCRASKSISKYLAWYQEKPGKTNKLLIYSGSTLQSGIPSRFSGSGSGTDFTLTISSLEPEDFAMYYCQQHNEYPWTFGGGTKLEIK

Reference: US20190389970A1
